This data set has as its target SARS-CoV-2 spike protein (original strain) (SARS-CoV-2, UniProt P0DTC2 P0DTC2:14-1273). Briefly: flow.

B1: SEQ ID NO: 14 aptamer (72 nt truncation of SEQ ID NO: 1) (ssRNA)
RNA: GGGAGAGCGGAAGCGUGCUGGGCCCCUUUGACCAUAGGAGGCAAGUCUUAUGUUCAAACUGGUCCAUAACCC
modifications: 2'-F pyrimidines
As usually defined, the Kd is the free concentration of one partner at which half of the binding sites on the other are occupied at equilibrium, for simple one-to-one binding. Low readings indicate higher affinity, high ones lower affinity. On to B1, for which the Kd came to 20.7 nM. This counts as double-digit nanomolar.
